Key:
[1] = target: the molecule itself; test: cryo-EM structure; native PDC purified from N. crassa mitochondria; single-particle reconstructions under icosahedral and tetrahedral symmetry (classes X, Y, N)
[2] = target: the molecule itself; test: cryo-EM structure; reconstituted tE2+PX30 subcomplex of separately expressed components; icosahedral (map R1) and tetrahedral (maps R2X/Y) reconstructions
[3] = target: the molecule itself; test: cryo-EM structure; co-expressed tE2/PX261 subcomplex; reconstruction under icosahedral symmetry

B1: E2 of the native N. crassa pyruvate dehydrogenase complex (PDC core) (natural protein, UniProt P20285 29-458, looked up)
chain: ASYPPHTVVKMPALSPTMTSGGIGAWQKKPGDKIEPGEVLVEIETDKAQMDFEFQEEGVLAKILKDSGEKDVAVGNPIAILVEEGTDVNAFKDFTLKDAGGETSPAVPKDEPKNESTASAPTPAPTPAPEPENTSFTGRFQTALEREPNALPAAKRLAREKGIDLRNVKGSGPGGKITEEDVKKALASAPAAGAAAAAYTDVPISGMRKTIAARLKESVTENPHFFVSTNLSVSKLLKLRQALNSSADGRYKLSVNDFLIKAMGIASKRVPTVNSSWRDGVIRQFETVDVSVAVATPNGLITPIVKGVEGKGLESISAAVKELAKKARDGKLKPEEYQGGSISISNMGMNPAVQSFTAIINPPQAAILAVGAPQKVAVPVENEDGTTGVSWDEQIIVTASFDHKVVDGAVGAEWIRELKKVIENPLELLL
notes: E2 (acetyltransferase) component of the pyruvate dehydrogenase complex, Neurospora crassa, UniProt P20285; residues 232-458 identified in the native reconstruction; the recombinant E2 construct starts at residue 29; Strain WT STA74 / ATCC 14692; also called E2 core; source: endogenous, PDC purified from N. crassa mitochondria (sucrose cushion, sucrose gradient, SEC); copies: 60
With B1 the “stoichiometry N” value [1] was 60.

B2: N. crassa E2 core-forming domain (tE2), separately expressed (domain or fragment, UniProt P20285 225-458, looked up)
chain: AAYTDVPISGMRKTIAARLKESVTENPHFFVSTNLSVSKLLKLRQALNSSADGRYKLSVNDFLIKAMGIASKRVPTVNSSWRDGVIRQFETVDVSVAVATPNGLITPIVKGVEGKGLESISAAVKELAKKARDGKLKPEEYQGGSISISNMGMNPAVQSFTAIINPPQAAILAVGAPQKVAVPVENEDGTTGVSWDEQIIVTASFDHKVVDGAVGAEWIRELKKVIENPLELLL
notes: E2 of the pyruvate dehydrogenase complex, Neurospora crassa, residues 225-458 of UniProt P20285 (core-forming catalytic domain); model built for 227-458; pRSET vector; the His6-tag is cleavable with thrombin; Icosahedral assembly; source: E. coli Rosetta2 (DE3), single expression
B2: binds [2].

B3: untagged N. crassa E2 core-forming domain (tE2), co-expressed with PX constructs (domain or fragment, UniProt P20285 225-458, looked up)
chain: AAYTDVPISGMRKTIAARLKESVTENPHFFVSTNLSVSKLLKLRQALNSSADGRYKLSVNDFLIKAMGIASKRVPTVNSSWRDGVIRQFETVDVSVAVATPNGLITPIVKGVEGKGLESISAAVKELAKKARDGKLKPEEYQGGSISISNMGMNPAVQSFTAIINPPQAAILAVGAPQKVAVPVENEDGTTGVSWDEQIIVTASFDHKVVDGAVGAEWIRELKKVIENPLELLL
notes: E2 of the pyruvate dehydrogenase complex, Neurospora crassa, residues 225-458 of UniProt P20285 (core-forming catalytic domain); petDuet dual-expression vectors were built with the single-expression genes as template; PX stood in the His-tagged MCS1, tE2 untagged; also called untagged E2 core-forming domain; PDC core; source: E. coli Rosetta2 (DE3), co-expressed with His-tagged PX from petDuet, …
B3: binds [3].

From publication doi:10.1101/2020.08.13.232140, “Assembly and symmetry of the fungal E3BP-containing core of the Pyruvate Dehydrogenase Complex” (bioRxiv, 2020)
